How the values were obtained:
[1] = molecular target: T1, full-length murine βKlotho expressed in HEK293 cells (mouse, UniProt Q99N32 1-1043); assay: immunocytochemistry of transfected HEK293 cells
T1 construct: whole, on cells
T1 sequence (looked up): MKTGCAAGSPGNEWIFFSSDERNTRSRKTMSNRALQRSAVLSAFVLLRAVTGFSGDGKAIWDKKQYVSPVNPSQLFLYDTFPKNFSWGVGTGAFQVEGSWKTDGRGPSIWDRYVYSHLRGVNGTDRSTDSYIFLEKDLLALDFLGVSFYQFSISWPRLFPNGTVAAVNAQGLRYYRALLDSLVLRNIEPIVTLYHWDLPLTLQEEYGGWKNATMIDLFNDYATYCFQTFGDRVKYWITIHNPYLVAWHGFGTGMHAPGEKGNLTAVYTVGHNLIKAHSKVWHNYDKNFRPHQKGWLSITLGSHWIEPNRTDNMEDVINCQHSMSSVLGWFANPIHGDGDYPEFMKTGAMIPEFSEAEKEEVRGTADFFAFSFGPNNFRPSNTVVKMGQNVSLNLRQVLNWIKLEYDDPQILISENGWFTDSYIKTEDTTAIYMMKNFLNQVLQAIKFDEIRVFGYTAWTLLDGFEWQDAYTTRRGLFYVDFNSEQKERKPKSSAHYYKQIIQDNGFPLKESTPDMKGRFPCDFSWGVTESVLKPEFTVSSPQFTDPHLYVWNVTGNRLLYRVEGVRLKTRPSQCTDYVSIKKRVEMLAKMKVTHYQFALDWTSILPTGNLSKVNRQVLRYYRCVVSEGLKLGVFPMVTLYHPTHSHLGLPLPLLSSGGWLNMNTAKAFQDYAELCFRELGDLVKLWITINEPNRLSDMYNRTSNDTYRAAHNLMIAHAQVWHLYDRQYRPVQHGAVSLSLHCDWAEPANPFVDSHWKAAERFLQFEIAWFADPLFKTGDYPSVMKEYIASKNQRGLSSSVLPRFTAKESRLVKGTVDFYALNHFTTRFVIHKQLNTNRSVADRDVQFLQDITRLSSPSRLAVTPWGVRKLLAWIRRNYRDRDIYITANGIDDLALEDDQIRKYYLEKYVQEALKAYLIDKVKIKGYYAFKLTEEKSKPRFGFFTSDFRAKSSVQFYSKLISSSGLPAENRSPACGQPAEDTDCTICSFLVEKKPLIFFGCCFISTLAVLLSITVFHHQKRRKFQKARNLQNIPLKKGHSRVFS

[2] = molecular target: T2, extracellular domain (ECD) of human αKlotho, amino acids E34-S981 with C-terminal 6-His tag (R&D Systems … (human, UniProt Q9UEF7 34-981)); assay: SPR, Fab captured by anti-H+L IgG, αKlotho injected at 50 to 6.25 ug/ml, Langmuir fit
T2 construct: range 34-981; also called αKlotho (aa34-981); target antigen
T2 sequence: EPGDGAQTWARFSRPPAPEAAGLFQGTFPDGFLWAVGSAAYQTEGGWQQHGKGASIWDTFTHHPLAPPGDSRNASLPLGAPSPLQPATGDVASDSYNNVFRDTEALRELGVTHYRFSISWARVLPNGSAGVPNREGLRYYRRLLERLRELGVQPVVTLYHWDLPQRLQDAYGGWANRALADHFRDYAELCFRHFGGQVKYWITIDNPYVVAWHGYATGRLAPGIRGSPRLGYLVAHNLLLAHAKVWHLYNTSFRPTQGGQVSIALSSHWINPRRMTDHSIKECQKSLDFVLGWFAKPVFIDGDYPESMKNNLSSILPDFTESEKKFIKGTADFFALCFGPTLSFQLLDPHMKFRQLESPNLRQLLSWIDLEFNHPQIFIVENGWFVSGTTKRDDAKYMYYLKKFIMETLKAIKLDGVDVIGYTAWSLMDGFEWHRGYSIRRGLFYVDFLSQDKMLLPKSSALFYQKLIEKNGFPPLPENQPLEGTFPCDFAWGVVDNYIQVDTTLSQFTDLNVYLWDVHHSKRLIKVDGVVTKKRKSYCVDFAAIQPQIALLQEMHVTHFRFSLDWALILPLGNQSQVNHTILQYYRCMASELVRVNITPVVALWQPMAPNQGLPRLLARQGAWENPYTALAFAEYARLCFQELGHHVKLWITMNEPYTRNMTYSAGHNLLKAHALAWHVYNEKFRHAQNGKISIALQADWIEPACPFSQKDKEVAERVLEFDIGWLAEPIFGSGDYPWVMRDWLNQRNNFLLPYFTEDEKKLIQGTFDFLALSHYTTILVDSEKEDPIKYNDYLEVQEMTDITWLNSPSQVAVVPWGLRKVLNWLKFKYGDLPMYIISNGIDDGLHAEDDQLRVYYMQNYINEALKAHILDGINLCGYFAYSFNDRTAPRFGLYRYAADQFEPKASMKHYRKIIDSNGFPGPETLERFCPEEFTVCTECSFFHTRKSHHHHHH
Description: Affinity estimates for each of the antibodies were determined by surface plasmon resonance (SPR). Fabs were immobilized using an anti-H+L antibody and serial dilutions of αKlotho were injected.

B1: sb106 Fab (Fab, V domains shown)
VH: EVQLVESGGGLVQPGGSLRLSCAASGFNISYYSIHWVRQAPGKGLEWVAYISPSYGYTSYADSVKGRFTISADTSKNTAYLQMNSLRAEDTAVYYCARYYVYASHGWAGYGMDYWGQGTLVTVSS
VL: DIQMTQSPSSLSASVGDRVTITCRASQSVSSAVAWYQQKPGKAPKLLIYSASSLYSGVPSRFSGSRSGTDFTLTISSLQPEDFATYYCQQAGYSPITFGQGTKVEIKR
notes: also called Fsb106; clone 48
For B1, the binding result [1] was “no binding (tested: 5 µg/ml)”, the Kd [2] was 1.08 nM and the koff [2] was 0.000389 s⁻¹. The kon [2] was 360000 M⁻¹ s⁻¹.

From patent US20190041402A1 (GOVERNING COUNCIL OF THE UNIVERSITY OF TORONTO, published 2019)
